# Test results: US20040180341A1, “Transcriptional regulation of kinase inhibitors” (Brown University, priority 2003, published 2004)
# Legend:
# [1] = tested on: AP-1 dependent reporter gene; test: AP-1 dependent reporter gene (TRE-lacZ), microinjection into Rat-1 cells; type: cell-based; details: for suppression of AP-1 reporter induction caused by anti-RKIP antibodies: MEK inhibitors given 1 h before microinjection
# Excerpt: In one embodiment, the RKIP protein inhibiting agent can be an antibody specifically recognizing an RKIP motif. For example, to examine the relevance of the interaction between RKIP and the kinases of the Raf/MEK/ERK module in mammalian cells, endogenous RKIP \was inhibited by antibody microinjection. Since the AP-1 transcription factor is a major target of Raf signaling (Kortenjann et al. Mol. Cell. Biol. 14:4815-4824, 1994;Rapp et al., Oncogene 9:3493-3498, 1994; Kolch et al. Oncogene 8:361-370, 1993), the influence of RKIP on AP-1 activity was tested as shown in FIG. 3.
# Microinjections of antibodies and reporter genes were performed as described previously (Lavinsky et al. Proc. Natl. Acad. Sci. USA 95:2920-2925, 1998; Rose et al. J. Cell. Biol. 119:1405-1411, 1992). Briefly, quiescent Rat-1 cells were microinjected with the reporter plasmids and antibodies and either left unstimulated or treated with 200 ng/ml TPA or 20 μg/ml forskolin. The RKIP antiserum was purified over a GST-RKIP affinity column. NIH3T3 cells were stained with an activation specific anti-phospho-ERK monoclonal antibody (Sigma). ERK phosphorylation was quantified by densitometry. For this purpose areas with microinjected cells were randomly photographed, and the staining intensity of whole individual cells was measured using the PcBAS software.
# (§1) In one embodiment, the present invention provides a method of identifying a cell growth modulating agent by analyzing the effect of a candidate agent on the expression of an RKIP responsive reporter. For example, to show the effect of the RKIP on the activity of the AP-1 mediated transcription, NIH 3T3 cells were co-transfected with a 3xTRE-CAT reporter and the above described expression plasmids. NIH 3T3 and 208F cells were transfected in 6-well plates with 1 μg of pCMV5-BXB and 3 μg of p53/RKIP using Superfect (Qiagen).
# AP-1 luciferase assays and microinjection experiments with affinity-purified RKIP antiserum and TRE-lacZ reporter plasmids were carried out as previously described (Yeung et al. Nature, 401:173-177, 1999). […] This induction was due to the activation of MEK, since it could be suppressed by two structurally different MEK inhibitors, U0126 and PD98059 (FIG. 7(a)). […] These antibodies are therefore useful tools for investigating the molecular mechanism by which RKIP works. The RKIP antiserum interfered with the binding of Raf-1 and MEK to RKIP (FIG. 7(b)). […] Furthermore, the RKIP antibodies reversed the inhibitory effect of RKIP on MEK phosphorylation by Raf-1 (FIG. 7(c)).
# [2] = target: T1, Raf-1 (Homo sapiens, UniProt P04049); test: In vitro kinase assay of reconstituted Raf/MEK/ERK cascade: Raf-1; type: biochemical
# T1 construct: GST (cleaved yes); made in house; host or cells: Sf-9 insect cells
# Description: (§2) Kinase assays were done as described in Hafner et al. (Mol. Cell. Biol. 14:6696-6703, 1994). Activated Raf-1 was generated by co-expressing GST-Raf-1 with v-Ras and Lck in Sf-9 cells and collected on glutathione Sepharose beads. Subsequent thrombin cleavage released Raf-1 which was fully active and >90% pure. To activate MEK and ERK in vitro, 20 ng activated Raf-1 was incubated with 40 ng purified His/MEK-1 and 250 ng GST-ERK-2 in Raf kinase buffer containing 20 μM ATP for 20 minutes at 30° C. To measure kinase activities at individual steps the respective downstream components were omitted. The activation reactions were diluted into 50 μl Raf kinase buffer containing 20 μm ATP to yield equimolar concentrations of the kinases to be assayed and incubated with increasing amounts of purified RKIP on ice for 10 minutes. Similar assays may be performed with smaller polypeptides comprising RKIP motifs, or even with a peptide consisting essentially of an RKIP motif as defined herein. Then, 2 μCi [^32P]-γ-ATP and recombinant substrates were added and incubated for 20 minutes at 30° C. As substrates 200 ng kinase negative His/MEK-1 was used for Raf, 1 μg kinase negative GST-ERK for MEK, and 1 μg GST-ELK (New England Biolabs) for ERK. In some assays 1 μg GST-MEK was used as Raf-1 substrate with identical results.
# [3] = tested on: MEK; test: In vitro kinase assay: MEK; type: biochemical
# Description: as §2, with “results. […]” for “results.”
# [4] = target: T2, ERK (Homo sapiens, UniProt P28482); test: In vitro kinase assay: ERK; type: biochemical; details: purified RKIP, recombinant proteins in vitro
# T2 construct: GST; made in house
# Description: as §2
# [5] = tested on: MEKK-1; test: MEK phosphorylation by immunoprecipitated MEKK-1; type: biochemical; details: MEKK-1 immunoprecipitated from COS-1 cells, knMEK substrate
# Description: “BSA” indicates use of 15 μM bovine serum albumin; “Co.” substrate alone; and “kn”, kinase negative mutant. […] HA-MEK-DD or HA-MEK-1 expressed in COS-1 cells were immunoprecipitated with anti-HA antibodies from serum starved cells or TPA treated cells, respectively, and assayed for kinase activity. […] MEKK-1 was immunoprecipitated from transiently transfected COS-1 cells and used to phosphorylate knMEK.
# [6] = target: T3, Raf-1-MEK complexes (Homo sapiens, UniProt P04049); test: Disruption of the Raf-1-MEK complex on glutathione Sepharose beads; type: binding; details: in vitro, purified RKIP
# T3 construct: made in house; host or cells: Sf-9 insect cells
# Description: In vitro binding assays contained 5 μg of GST-fusion protein immobilized on glutathione Sepharose beads and 0.5-5 μg purified recombinant protein in PBS supplemented with 10% bovine serum as nonspecific competitor. Sf-9 cell lysates were used as source of Raf proteins (Hafner et al., 1994, Mol. Cell. Biol. 14: 6696-6703). After incubation for 1 hour at 4° C. the samples were washed 4 times with PBS, resolved by SDS-PAGE and blotted. The blots were developed using ECL (Amersham).
# GST-MEK and Raf-1 were co-expressed in Sf-9 cells. The GST-MEK-Raf-1 complex was purified by adsorption to glutathione Sepharose beads, washed, and resuspended in PBS. Purified RKIP was added at the concentrations indicated. After 1 hour at 4° C., the GST-MEK beads were washed three times with PBS and examined for associated proteins by Western blotting (WB) with the indicated antisera.
# [7] = tested on: AP-1 activity; test: 3xTRE-CAT reporter in NIH 3T3 cells co-transfected with RKIP; type: cell-based; details: RKIP transfection
# Description: as §1
# [8] = tested on: NIH 3T3 and 208F cells; test: Transformation assays (morphological transformation, focus formation, soft agar); type: cell-based
# Excerpt: Additionally, NIH 3T3 cells were transfected with BXB, alone or together with RKIP (linked to neomycin/G418 resistance encoding gene). The G418-resistant colonies were counted and scored for morphological transformation. Aliquots of the same transfection were allowed to grow to confluency without drug and were scored for focus formation. A BXB-transformed cell line was infected with LXSH-RKIP retrovirus or LXSH (hygromycin resistant) and seeded in soft agar in the presence of hygromycin. […] The data are expressed as the reduction in focus formation relative to focus formation upon co-transfection with empty vector (set to 100%).
# [9] = tested on: Raf-1; test: Raf-1 immunoprecipitate kinase activity in transfected COS-1 cells; type: cell-based; details: co-transfection of RKIP
# Description: (§3) The COS-1 cells were transfected as described (Catling et al., 1995, Mol. Cell. Biol. 15: 5214-5225) with 2 μg of HA-ERK-2, BXB, MEK and MEK-DD plasmids and the indicated amounts of p353/RKIP. The total amount of transfected DNA was kept constant using the appropriate vectors as carrier DNA. […] In addition, 0.1 μg of an AP1-Luc reporter was transfected for reporter gene assays. 48 hours post-transfection cells were serum starved for 20 hours and either left untreated or treated with TPA (200 ng/ml) or serum for 5 hours before being collected. Cells were lysed and cell extracts were used for immunoblotting or assayed for luciferase activity. For the GFP sorting experiments 5×10^6 NIH 3T3 cells were electroporated with either 100 μg pCMVori, 50 μg pCMV-GFP, and 50 μg pHACT or 100 μg pASC143, 50 μg CMV-GFP, and 50 μg CMV-HAC. Two days later cells were trypsinized and sorted for green fluorescent cells by preparative FACS. 100,000 GFP-positive cells were lysed in SDS-gel sample buffer and immunoblotted.
# (§4) COS-1 cells were transiently transfected with HA-MEK and increasing amounts of RKIP expression vectors. Serum starved cells were stimulated with 100 ng/ml TPA for 20 minutes, and the kinase activities of Raf-1 and HA-MEK immunoprecipitates were measured.
# [10] = target: T4, MEK (Homo sapiens, UniProt Q02750); test: HA-MEK immunoprecipitate kinase activity in transfected COS-1 cells; type: cell-based; details: co-transfection of RKIP, dose dependent
# T4 construct: expressed in transfected cells; host or cells: COS-1
# Description: as §3, §4
# [11] = tested on: ERK; test: HA-ERK immunoprecipitate kinase activity in transfected COS-1 cells; type: cell-based
# Description: as §3
# COS-1 cells were transfected with the indicated expression plasmids plus increasing amounts of RKIP. HA-ERK-2 was immunoprecipitated and assayed with MBP.
# COS-1 cells were transfected with the indicated expression vectors and the kinase activity of HA-ERK immunoprecipitates was examined.
# [12] = target: T5, GST-Raf-1 (Homo sapiens, UniProt P04049); test: Binding of purified RKIP to inactive and activated GST-Raf-1 beads; details: recombinant RKIP produced in E. coli
# T5 construct: made in house; host or cells: Sf-9 insect cells
# Description: Activated GST-Raf-1 was produced in Sf-9 insect cells co-infected with RasV12 and Lck, which results in a robust activation of the catalytic activity. GST-Raf-1 proteins were purified by adsorption to glutathione Sepharose beads and incubated with recombinant RKIP produced in E. coli. […] We also tested whether activation affected the binding of MEK and ERK to RKIP. Purified MEK and ERK were phosphorylated in vitro with recombinant Raf-1 or Raf-1 plus MEK, respectively, and incubated with GST or GST-RKIP beads. The binding reaction products were washed, separated on SDS gels, and immunoblotted with the appropriate antisera. […] However, since only small fractions of MEK and ERK become phosphorylated, we also carried out the phosphorylation in the presence of […] The blots were autoradiographed to detect phosphorylated MEK and ERK and were subsequently stained with the cognate antisera to visualize total protein bound. Under these conditions, binding of phosphorylated MEK and ERK to RKIP was evident.
# [13] = tested on: cell lines resistant to apoptosis; test: Sensitivity to apoptotic stimuli on RKIP expression; type: cell-based; details: expression of RKIP; data not shown
# [14] = microinjection of an RKIP expression vector
# [15] = purified RKIP, recombinant proteins in vitro
# T2 sequence (P28482 whole entry): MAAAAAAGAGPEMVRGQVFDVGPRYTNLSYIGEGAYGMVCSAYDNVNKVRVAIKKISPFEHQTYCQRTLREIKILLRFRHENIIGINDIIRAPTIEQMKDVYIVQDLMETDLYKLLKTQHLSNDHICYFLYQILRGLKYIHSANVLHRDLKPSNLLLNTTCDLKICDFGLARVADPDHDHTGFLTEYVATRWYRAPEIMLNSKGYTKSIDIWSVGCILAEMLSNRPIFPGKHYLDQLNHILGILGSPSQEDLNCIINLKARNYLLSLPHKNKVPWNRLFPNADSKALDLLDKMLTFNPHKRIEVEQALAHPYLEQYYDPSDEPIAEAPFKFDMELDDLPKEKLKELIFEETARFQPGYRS
molecule,measurement,setting,value
"N#CC(=C(/N)Sc1ccccc1N)/C(C#N)=C(\N)Sc1ccccc1N [U0126, reference compound]",suppression of AP-1 reporter induction caused by anti-RKIP antibodies,[1],suppressed
"COc1cccc(-c2cc(=O)c3ccccc3o2)c1N [PD98059, reference compound]",suppression of AP-1 reporter induction caused by anti-RKIP antibodies,[1],suppressed
"RKIP: Raf kinase inhibitor protein; used as purified recombinant protein or expressed from vector p353/RKIP (protein, UniProt P30086 2-187, looked up) Phosphatidylethanolamine-bindi …: PVDLSKWSGPLSLQEVDEQPQHPLHVTYAGAAVDELGKVLTPTQVKNRPTSISWDGLDSGKLYTLVLTDPDAPSRKDPKYREWHHFLVVNMKGNDISSGTVLSDYVGSGPPKGTGLHRYVWLVYEQDRPLKCDEPILSNRSGDHRGKFKVASFRKKYELRAPVAGTCYQAEWDDYVPKLYEQLSGK",AP-1 induction by TPA and BXB,[1]; [14],impaired
same,AP-1 stimulation by ERK-1,[1]; [14],did not interfere
same,mechanism of Raf-1 inhibition,"[2]; Lineweaver-Burk plot, GST-MEK-1 substrate",competitive inhibitor
same,Raf-1 autophosphorylation or phosphorylation of MBP by Raf-1,[2]; in vitro,did not interfere
same,phosphorylation of MEK by Raf-1,[2]; [15],decreased
same,inhibition of MEK-DD or MEK activated by TPA treatment of cells,[3]; immunoprecipitated from COS-1 cells,failed to inhibit
same,ERK phosphorylation by MEK,[3]; [15],did not inhibit
same,ELK phosphorylation by ERK,[4],did not inhibit
same,MEK phosphorylation by MEKK-1,[5],did not prevent
same,physical interaction between Raf-1 and MEK,[6],disrupted
same,basal and BXB induced AP-1 activity,[7],diminished
same,induction of foci by v-fos or mutationally activated MEK alleles,[8]; RKIP overexpression,only to a small extent
same,v-src transformation,[8]; RKIP overexpression,failed to inhibit
same,total colony yield,[8]; RKIP overexpression with BXB,decreased
same,transformation efficiency of BXB,"[8]; RKIP overexpression, morphological transformation, focus formation, anchorage independent growth",significantly reduced
same,activation of Raf-1 by TPA,[9],only a small influence
same,activation of MEK by TPA,[10],strongly inhibited
same,ERK activation by MEK-DD,[11]; RKIP co-transfection,did not affect
same,activation of ERKs by v-Ras or v-Src oncogenes,[11]; RKIP overexpression,downregulated
same,BXB induced activation of ERK,"[11]; increasing amounts of RKIP expression plasmid, dose dependent",inhibited
same,RKIP binding to activated versus inactive GST-Raf-1,[12],Less RKIP bound
same,sensitivity to apoptotic stimuli,[13],rendered sensitive
